Reference: patent publication US20200179511A1 (Novartis, published 2020)

Tests used:
[1] = biological target: T1, human BCMA (B-cell maturation antigen) (human, UniProt Q02223 1-184); assay: cell-based or functional assay
T1 sequence (looked up): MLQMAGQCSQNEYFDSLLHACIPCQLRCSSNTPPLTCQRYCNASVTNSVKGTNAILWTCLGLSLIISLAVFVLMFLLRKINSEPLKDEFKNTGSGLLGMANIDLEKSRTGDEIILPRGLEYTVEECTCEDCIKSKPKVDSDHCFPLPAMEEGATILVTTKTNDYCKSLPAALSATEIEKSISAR

[2] = biological target: T1, human BCMA (B-cell maturation antigen); assay: cell-based or functional assay; remark: listed apart in the source

B1: BCMA×CD3 bispecific antibody EE11 (bispecific antibody)
chain 1: not shown
chain 2: EVQLVESGGGLVQPGGSLKLSCAASGFTFNTYAMNWVRQASGKGLEWVGRIRSKYNNYATYYADSVKDRFTISRDDSKSTLYLQMNSLKTEDTAVYYCVRHGNFGNSYVSWFAYWGQGTLVTVSSGGGGSGGGGSGGGGSGGGGSQAVVTQEPSLTVSPGGTVTLTCRSSTGAVTTSNYANWVQQKPGQAPRGLIGGTNKRAPWTPARFSGSLLGDKAALTLSGAQPEDEAEYFCALWYSNLWVFGGGTKLTVLGGGGSDKTHTCPPCPAPELLGGPSVFLFPPKPKDTLMISRTPEVTCVVVAVSHEDPEVKFNWYVDGVEVHNAKTKPREEQYNSTYRVVSVLTVLHQDWLNGKEYKCKVSNKALAAPIEKTISKAKGQPREPQVCTLPPSRDELTKNQVSLSCAVKGFYPSDIAVEWESNGQPENNYKTTPPVLDSDGSFFLVSKLTVDKSRWQQGNVFSCSVMHEALHNHYTQKSLSLSPGK
fold enhancement of RTCC EC50 upon GSI treatment [1]: ≥ 10 fold

B2: Pfizer_CD3_H2B4_RRRR-Pfizer_BCMA_comboC29_EEEE hIgG2a_ASS (bispecific antibody)
heavy 1: EVQLLESGGGLVQPGGSLRLSCAASGFTFSSYPMSWVRQAPGKGLEWVSAIGGSGGSLPYADSVKGRFTISRDNSKNTLYLQMNSLRAEDTAVYYCARYWPMDIWGQGTLVTVSSASTKGPSVFPLAPCSRSTSESTAALGCLVKDYFPEPVTVSWNSGALTSGVHTFPAVLQSSGLYSLSSVVTVPSSNFGTQTYTCNVDHKPSNTKVDKTVERKCEVECPECPAPPVAGPSVFLFPPKPKDTLMISRTPEVTCVVVAVSHEDPEVQFNWYVDGVEVHNAKTKPREEQFNSTFRVVSVLTVVHQDWLNGKEYKCKVSNKGLPSSIEKTISKTKGQPREPQVYTLPPSREEMTKNQVSLTCEVKGFYPSDISVEWESNGQPENNYKTTPPMLDSDGSFFLYSKLTVDKSRWQQGNVFSCSVMHEALHNHYTQKSLSLSPGK
light 1: EIVLTQSPGTLSLSPGERATLSCRASQSVSSSYLAWYQQKPGQAPRLLMYDASIRATGIPDRFSGSGSGTDFTLTISRLEPEDFAVYYCQQYQSWPLTFGQGTKVEIKRTVAAPSVFIFPPSDEQLKSGTASVVCLLNNFYPREAKVQWKVDNALQSGNSQESVTEQDSKDSTYSLSSTLTLSKADYEKHKVYACEVTHQGLSSPVTKSFNRGEC
heavy 2: EVQLVESGGGLVQPGGSLRLSCAASGFTFSDYYMTWVRQAPGKGLEWVAFIRNRARGYTSDHNASVKGRFTISRDNAKNSLYLQMNSLRAEDTAVYYCARDRPSYYVLDYWGQGTTVTVSSASTKGPSVFPLAPCSRSTSESTAALGCLVKDYFPEPVTVSWNSGALTSGVHTFPAVLQSSGLYSLSSVVTVPSSNFGTQTYTCNVDHKPSNTKVDKTVERKCRVRCPRCPAPPVAGPSVFLFPPKPKDTLMISRTPEVTCVVVAVSHEDPEVQFNWYVDGVEVHNAKTKPREEQFNSTFRVVSVLTVVHQDWLNGKEYKCKVSNKGLPSSIEKTISKTKGQPREPQVYTLPPSREEMTKNQVSLTCLVKGFYPSDISVEWESNGQPENNYKTTPPMLDSDGSFFLYSRLTVDKSRWQQGNVFSCSVMHEALHNHYTQKSLSLSPGK
light 2: not shown
Fold GSI Enhancement, RTCC assay, KMS11 target cells [2]: 48.3 fold | IC50, RTCC assay, KMS11 target cells, No GSI [2]: 0.097 nM | IC50, RTCC assay, KMS11 target cells, with GSI LY-450139 [2]: 0.002 nM | IC50, RTCC assay, KMS11 target cells, with GSI PF-3084014 [2]: 0.002 nM | IC50, RTCC assay, KMS11 target cells, with GSI PF-5212362 [2]: 0.002 nM

B3: Anti-BCMA J6M0 hIgG DLE CGW117 (MMAE) conjugate (antibody, V domains shown)
VH: QVQLVQSGAEVKKPGSSVKVSCKASGGTFSNYWMHWVRQAPGQGLEWMGATYRGHSDTYYNQKFKGRVTITADKSTSTAYMELSSLRSEDTAVYYCARGAIYDGYDVLDNWGQGTLVTVSS
VL: DIQMTQSPSSLSASVGDRVTITCSASQDISNYLNWYQQKPGKAPKLLIYYTSNLHSGVPSRFSGSGSGTDFTLTISSLQPEDFATYYCQQYRKLPWTFGQGTKLEIKR
modifications: drug conjugate CGW117 (MMAE); attachment site not stated
Fold GSI Enhancement, ADC killing assay, MM1S cells [2]: 17.4 fold | Fold GSI Enhancement, ADC killing assay, U266B1 cells [2]: 23.1 fold | IC50, ADC killing assay, MM1S cells, No GSI [2]: 19.4 nM | IC50, ADC killing assay, MM1S cells, with GSI LY-411575 [2]: 1.12 nM | IC50, ADC killing assay, U266B1 cells, No GSI [2]: 6.04 nM | IC50, ADC killing assay, U266B1 cells, with GSI LY-411575 [2]: 0.26 nM

B4: BCMA×CD3 bispecific antibody EM90 (bispecific antibody)
light: QAVVTQEPSLTVSPGGTVTLTCGSSTGAVTTSNYANWVQEKPGQAFRGLIGGTNKRAPGTPARFSGSLLGGKAALTLSGAQPEDEAEYYCALWYSNLWVFGGGTKLTVLGQPKAAPSVTLFPPSSEELQANKATLVCLISDFYPGAVTVAWKADSSPVKAGVETTTPSKQSNNKYAASSYLSLTPEQWKSHRSYSCQVTHEGSTVEKTVAPTECS
heavy 1: not shown
heavy 2: EVQLVESGGGLVKPGGSLRLSCAASGFTFSNSGMIWVRQAPGKGLEWVGHIRSKTDGGTTDYAAPVKGRFTISRDDSKNTLYLQMNSLKTEDTAVYYCTTGGSGSFDYWGQGTLVTVSSASTKGPSVFPLAPSSKSTSGGTAALGCLVKDYFPEPVTVSWNSGALTSGVHTFPAVLQSSGLYSLSSVVTVPSSSLGTQTYICNVNHKPSNTKVDKRVEPKSCDKTHTCPPCPAPEAAGGPSVFLFPPKPKDTLMISRTPEVTCVVVDVSHEDPEVKFNWYVDGVEVHNAKTKPREEQYNSTYRVVSVLTVLHQDWLNGKEYKCKVSNKALPAPIEKTISKAKGQPREPQVCTLPPSREEMTKNQVSLSCAVKGFYPSDIAVEWESNGQPENNYKTTPPVLDSDGSFFLVSKLTVDKSRWQQGNVFSCSVMHEALHNHYTQKSLSLSPGK
fold enhancement of RTCC EC50 upon GSI treatment [1]: > 40 fold

B5: BCMA×CD3 bispecific antibody ER26 (bispecific antibody, human IgG1, kappa, N297A)
heavy: QVQLVQSGAEVKKPGSSVKVSCKASGGTFSNYWMHWVRQAPGQGLEWMGATYRGHSDTYYNQKFKGRVTITADKSTSTAYMELSSLRSEDTAVYYCARGAIYNGYDVLDNWGQGTLVTVSSASTKGPSVFPLAPSSKSTSGGTAALGCLVKDYFPEPVTVSWNSGALTSGVHTFPAVLQSSGLYSLSSVVTVPSSSLGTQTYICNVNHKPSNTKVDKRVEPKSCDKTHTCPPCPAPELLGGPSVFLFPPKPKDTLMISRTPEVTCVVVAVSHEDPEVKFNWYVDGVEVHNAKTKPREEQYNSTYRVVSVLTVLHQDWLNGKEYKCKVSNKALAAPIEKTISKAKGQPREPQVCTLPPSREEMTKNQVSLSCAVKGFYPSDIAVEWESNGQPENNYKTTPPVLDSDGSFFLVSKLTVDKSRWQQGNVFSCSVMHEALHNHYTQKSLSLSPGK
light: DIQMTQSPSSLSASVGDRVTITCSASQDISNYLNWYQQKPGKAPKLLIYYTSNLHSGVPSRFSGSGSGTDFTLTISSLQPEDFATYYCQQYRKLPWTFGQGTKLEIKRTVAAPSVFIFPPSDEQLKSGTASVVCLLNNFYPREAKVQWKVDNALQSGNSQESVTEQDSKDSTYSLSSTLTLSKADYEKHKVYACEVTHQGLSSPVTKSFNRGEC
chain: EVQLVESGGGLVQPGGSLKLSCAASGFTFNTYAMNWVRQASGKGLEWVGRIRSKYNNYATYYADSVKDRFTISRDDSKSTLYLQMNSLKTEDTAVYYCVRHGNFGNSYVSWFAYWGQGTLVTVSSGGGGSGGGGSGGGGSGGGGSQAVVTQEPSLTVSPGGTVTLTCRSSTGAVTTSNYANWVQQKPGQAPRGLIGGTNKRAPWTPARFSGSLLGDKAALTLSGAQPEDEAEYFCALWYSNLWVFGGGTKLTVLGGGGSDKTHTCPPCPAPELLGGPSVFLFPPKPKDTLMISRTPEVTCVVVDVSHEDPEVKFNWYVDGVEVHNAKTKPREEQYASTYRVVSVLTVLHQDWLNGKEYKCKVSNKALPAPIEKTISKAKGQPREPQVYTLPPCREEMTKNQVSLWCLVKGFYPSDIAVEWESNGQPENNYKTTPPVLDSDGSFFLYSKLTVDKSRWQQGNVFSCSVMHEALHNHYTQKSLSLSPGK
fold enhancement of RTCC EC50 upon GSI treatment [1]: > 100 fold

B6: BCMA×CD3 bispecific antibody BU76 (bispecific antibody, human IgG1, kappa, N297A)
heavy: QIQLVQSGPELKKPGETVKISCKASGYTFTDYSINWVKRAPGKGLKWMGWINTETREPAYAYDFRGRFAFSLETSASTAYLQINNLKYEDTATYFCALDYSYAMDYWGQGTSVTVSSASTKGPSVFPLAPSSKSTSGGTAALGCLVKDYFPEPVTVSWNSGALTSGVHTFPAVLQSSGLYSLSSVVTVPSSSLGTQTYICNVNHKPSNTKVDKRVEPKSCDKTHTCPPCPAPELLGGPSVFLFPPKPKDTLMISRTPEVTCVVVDVSHEDPEVKFNWYVDGVEVHNAKTKPREEQYASTYRVVSVLTVLHQDWLNGKEYKCKVSNKALPAPIEKTISKAKGQPREPQVCTLPPSREEMTKNQVSLSCAVKGFYPSDIAVEWESNGQPENNYKTTPPVLDSDGSFFLVSKLTVDKSRWQQGNVFSCSVMHEALHNHYTQKSLSLSPGK
light: DIVLTQSPASLAMSLGKRATISCRASESVSVIGAHLIHWYQQKPGQPPKLLIYLASNLETGVPARFSGSGSGTDFTLTIDPVEEDDVAIYSCLQSRIFPRTFGGGTKLEIKRTVAAPSVFIFPPSDEQLKSGTASVVCLLNNFYPREAKVQWKVDNALQSGNSQESVTEQDSKDSTYSLSSTLTLSKADYEKHKVYACEVTHQGLSSPVTKSFNRGEC
chain: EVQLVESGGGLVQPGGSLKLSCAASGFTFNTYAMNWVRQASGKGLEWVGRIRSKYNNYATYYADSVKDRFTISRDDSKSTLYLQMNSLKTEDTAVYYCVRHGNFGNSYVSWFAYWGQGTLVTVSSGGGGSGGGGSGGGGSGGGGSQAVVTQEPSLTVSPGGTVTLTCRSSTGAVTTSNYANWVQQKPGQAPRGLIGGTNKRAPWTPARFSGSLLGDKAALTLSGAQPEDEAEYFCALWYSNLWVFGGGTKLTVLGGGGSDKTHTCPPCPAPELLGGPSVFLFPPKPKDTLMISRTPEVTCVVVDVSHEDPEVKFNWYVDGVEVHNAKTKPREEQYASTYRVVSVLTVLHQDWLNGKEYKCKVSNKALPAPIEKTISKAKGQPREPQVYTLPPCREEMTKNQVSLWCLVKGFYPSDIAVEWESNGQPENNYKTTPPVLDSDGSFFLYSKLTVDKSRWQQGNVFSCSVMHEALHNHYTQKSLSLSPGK
fold enhancement of RTCC EC50 upon GSI treatment [1]: > 100 fold
